Results from publication PMC7864056, “Functional and structural characterization of allosteric activation of phospholipase Cε by Rap1A” (The Journal of Biological Chemistry, 2020).

Legend:
Test in all cases: cell-based or functional assay
[1] = molecular target: R. norvegicus PLCε PH-COOH variant (residues 837-2282) (R. norvegicus, UniProt Q99P84 837-2281)
[2] = molecular target: R. norvegicus PLCε PH-COOH K2150A (R. norvegicus, UniProt Q99P84 837-2281, K2150A)
[3] = molecular target: R. norvegicus PLCε PH-COOH K2152A (R. norvegicus, UniProt Q99P84 837-2281, K2152A)
Sequence of R. norvegicus PLCε PH-COOH K2152A (Q99P84 837-2281 K2152A): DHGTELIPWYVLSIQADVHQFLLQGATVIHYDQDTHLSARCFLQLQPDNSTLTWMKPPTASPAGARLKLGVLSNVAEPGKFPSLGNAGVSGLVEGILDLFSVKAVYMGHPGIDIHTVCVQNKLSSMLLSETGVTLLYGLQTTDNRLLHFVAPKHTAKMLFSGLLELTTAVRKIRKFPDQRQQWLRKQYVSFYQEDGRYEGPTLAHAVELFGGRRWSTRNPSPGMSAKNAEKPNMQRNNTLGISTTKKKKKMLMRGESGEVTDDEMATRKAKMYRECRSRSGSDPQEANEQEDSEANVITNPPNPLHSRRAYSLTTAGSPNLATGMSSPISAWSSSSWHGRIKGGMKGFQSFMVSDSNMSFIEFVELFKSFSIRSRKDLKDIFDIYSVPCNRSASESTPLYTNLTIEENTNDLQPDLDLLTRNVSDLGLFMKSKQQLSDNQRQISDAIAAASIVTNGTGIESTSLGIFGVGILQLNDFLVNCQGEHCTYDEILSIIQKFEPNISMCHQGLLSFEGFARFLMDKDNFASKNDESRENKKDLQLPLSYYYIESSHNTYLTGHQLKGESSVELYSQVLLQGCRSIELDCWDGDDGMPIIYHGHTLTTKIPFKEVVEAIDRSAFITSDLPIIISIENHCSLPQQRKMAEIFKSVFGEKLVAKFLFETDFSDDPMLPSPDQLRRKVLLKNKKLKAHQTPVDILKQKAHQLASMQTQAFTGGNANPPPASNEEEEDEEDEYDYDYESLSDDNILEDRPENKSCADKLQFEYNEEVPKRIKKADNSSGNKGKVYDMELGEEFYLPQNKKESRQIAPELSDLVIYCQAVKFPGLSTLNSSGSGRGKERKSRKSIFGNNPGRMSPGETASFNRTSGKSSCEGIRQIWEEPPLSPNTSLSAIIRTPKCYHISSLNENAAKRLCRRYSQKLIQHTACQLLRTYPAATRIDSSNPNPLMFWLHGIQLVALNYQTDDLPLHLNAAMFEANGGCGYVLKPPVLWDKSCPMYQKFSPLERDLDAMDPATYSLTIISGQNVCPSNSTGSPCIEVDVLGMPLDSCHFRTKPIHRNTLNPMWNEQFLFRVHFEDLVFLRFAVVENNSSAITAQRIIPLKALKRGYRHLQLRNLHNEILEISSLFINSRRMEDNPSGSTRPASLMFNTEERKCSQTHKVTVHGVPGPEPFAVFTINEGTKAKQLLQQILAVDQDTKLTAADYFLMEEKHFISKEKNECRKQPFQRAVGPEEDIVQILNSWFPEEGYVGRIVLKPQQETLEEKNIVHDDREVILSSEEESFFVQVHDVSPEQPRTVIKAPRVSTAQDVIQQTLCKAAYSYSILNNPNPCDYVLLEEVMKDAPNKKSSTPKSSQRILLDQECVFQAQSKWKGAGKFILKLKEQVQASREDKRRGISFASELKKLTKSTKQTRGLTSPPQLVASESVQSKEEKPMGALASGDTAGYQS

Sequence of R. norvegicus PLCε PH-COOH K2150A (Q99P84 837-2281 K2150A): as the sequence (Q99P84 837-2281 K2152A) above, with K1314A, A1316K counted along it
Sequence of R. norvegicus PLCε PH-COOH variant (residues 837-2282) (Q99P84 837-2281, stated change not applied): as the sequence (Q99P84 837-2281 K2152A) above, with A1316K counted along it

Fold activation by Rap1A^G12V of lipase activity, liposome-based [3H]PIP2 hydrolysis assay, increasing concentrations of Rap1A^G12V·GTP [1]: 3 fold
Fold activation by Rap1A^G12V of lipase activity, liposome-based [3H]PIP2 hydrolysis assay [2]: 1.8 fold
Fold activation by Rap1A^G12V of lipase activity, liposome-based [3H]PIP2 hydrolysis assay [3]: 0.9 fold
B1: constitutively active and prenylated Homo sapiens Rap1A G12V, GTP-bound (natural protein, UniProt P62834 1-184, looked up)
chain: MREYKLVVLGSVGVGKSALTVQFVQGIFVEKYDPTIEDSYRKQVEVDCQQCMLEILDTAGTEQFTAMRDLYMKNGQGFALVYSITAQSTFNDLQDLREQILRVKDTEDVPMILVGNKCDLEDERVVGKEQGQNLARQWCNCAFLESSAKSKINVNEIFYDLVRQINRKTPVEKKKPKKKSCLLL
modifications: prenylated
